A word on the Kd: it is the free concentration of one partner at which half of the binding sites on the other are occupied at equilibrium, for simple one-to-one binding.

Ends that are not written are not given here.

The chains are these.
B1: Native Temporin L (peptide)
peptide: FVQWFSKFLGRIL
notes: Temporin-L, amphibian antimicrobial peptide, 13 residues; also called TL; native TL
B2: TRIL (Temporin-L analogue) (peptide)
peptide: FVKWFKKFLTRIL
notes: Temporin-L with Q3K, S6K and G10T; Designed from the docking model of FtsZ with TL
B3: Escherichia coli FtsZ protein (enzyme, E. coli, UniProt P0A9A6 1-383, looked up)
chain: MFEPMELTNDAVIKVIGVGGGGGNAVEHMVRERIEGVEFFAVNTDAQALRKTAVGQTIQIGSGITKGLGAGANPEVGRNAADEDRDALRAALEGADMVFIAAGMGGGTGTGAAPVVAEVAKDLGILTVAVVTKPFNFEGKKRMAFAEQGITELSKHVDSLITIPNDKLLKVLGRGISLLDAFGAANDVLKGAVQGIAELITRPGLMNVDFADVRTVMSEMGYAMMGSGVASGEDRAEEAAEMAISSPLLEDIDLSGARGVLVNITAGFDLRLDEFETVGNTIRAFASDNATVVIGTSLDPDMNDELRVTVVATGIGMDKRPEITLVTNKQVQQPVMDRYQQHGMAPLTQEQKPVAKVVNDNAPQTAKEPDYLDIPAFLRKQAD
notes: also called recombinant FtsZ; source: E. coli BL21, overexpressed and purified as described previously [7]

Series [1] addresses T1, FtsZ (recombinant E. coli FtsZ) (Escherichia coli, UniProt P0A9A6).
T1 construct: made in house; host or cells: E. coli BL21
The series is described as follows: GTPase activity assay (BIOMOL Green Pi release). Format: biochemical. The conditions noted are these: 35 µM peptide, GTP substrate, 25 mM PIPES/NaOH pH 6.8. The method, then: The putative effect of the two TL analogues on FtsZ GTPase activity was evaluated by enzymatic assays.
The reaction was performed for 10 min and the Pi release was determined by measuring the absorbance at 620 nm following 25 min incubation. (b) Lineweaver−Burk plots from which the KM constants were calculated. (c) Calculated KM constants and Vmax for the enzymatic assays. The experiment was performed in duplicate and presented as mean ± standard error.
(§1) Recombinant E. coli FtsZ was overexpressed and purified from E. coli BL21 strain as described previously. The purity of the protein was analyzed by SDS-PAGE 12.5% and its primary structure was validated by MALDI mapping strategy on a 5800 MALDI-TOF/TOF instrument (ABI Sciex, Foster City, CA, USA). The concentration of purified FtsZ was determined by Bradford’s method, using BSA as a standard. The protein was stored at −80 °C.
The amount of Pi released during the assembly of FtsZ was measured using BIOMOL Green phosphate reagent (Biomol, Milan, Italy) as described earlier. […] The reaction was performed for 10 min and stopped by addition of 100 µL BIOMOL Green reagent. The Pi release was determined after incubation at 25 °C for 25 min by measuring the absorbance at 620 nm. The background was subtracted from all the readings. The experiment was performed in duplicate. […]

For series [2], the target named is T1, FtsZ (recombinant E. coli FtsZ). The series is described as follows: Fluorescence binding experiment (spectrofluorimetric titration). The conditions noted are these: FtsZ 12 μM, peptide 1 to 180 μM, 20 °C, excitation 280 nm, emission 347 nm, one site-specific binding fit, in duplicate; read-out: Kd of FtsZ-peptide complex. The method, then:
Right panel (d–f): Diagram plots extrapolated from fluorescence data. The experiments were performed in duplicate and the standard deviation is reported as error bars.
as §1
Fluorescence experiments were performed using a Fluoromax-4 spectrofluorometer from Horiba Scientific, using 1 cm optical path-length quartz cell under controlled temperature conditions (Peltier control system at 20 °C). The sample was analyzed, monitoring the fluorescence intensity of aromatic residues with an excitation wavelength of 280 nm. The wavelength range explored was 295–500 nm. […] All experiments were repeated in duplicate. The change in the fluorescence intensity of the reaction set was fitted into “one site-specific binding” equation of GraphPad Prism 5 (GraphPad Software, San Diego, CA, USA).

In series [3] the target is B3. The series is described as follows: other fluorescence titration; intrinsic fluorescence of FtsZ (12 µM), excitation 280 nm, emission 347 nm, 20 °C, peptide from 1 to 180 µM, fitted to 'one site-specific binding', duplicate. The conditions noted are these: both partners purified.
Series [4] concerns the molecule itself. In words: co-sedimentation; polymerization assay: FtsZ 12 µM in 25 mM PIPES/NaOH pH 6.8, 1 mM GTP, 25 °C 1 h, without or with 10, 30, 50, 70 µM peptide; centrifugation 14,000 rpm 60 min, pellet on SDS-PAGE, densitometry.

Turning to Magainin-2, in series [1], the “effect on FtsZ GTPase activity (in words)” value is given as “no effect on the GTP activity”. For FVKWFKKFLTRILF [TRILF], the Kd in series [2] was 4.3 ± 0.2 µM. In series [3], B1 registered a Kd of 11 ± 1 µM. Still for that read-out and setting: the value for B2 was 21.4 ± 1.1 µM. With B3, the binding result in series [4] is on record as “binds”.

These data come from publication PMC8230800, “Interaction of Temporin-L Analogues with the E. coli FtsZ Protein” (Antibiotics, 2021).
